13 proteins from patent US20250027068 can be followed below.

Sequences and labels used below:
B1: PRT-50 (protein)
chain: MANQEIRYSEVTPYHVTSVWTKGVTPPANFTQGEDVFHAPYVANQGWYDINKTFNGKDDLLCGAATAGNMLHWWFDQNKEQIERYLKEHPEKGKINFNGEQMFDVKEAIDTKNNQTDSKLFEYFKEKAFPYLSTKHLGVFPDRVLDMFINGYRLSLTNHGPTPVKEGSKDPRGGFFDDVFGRGDQSKLLTSRHDFKEKNLEEISDLIKKELTEGKALGLSHTYANVRINHVINLWGADFDSNGNLKAIYVTDSDSNASVGMKKYFVGVNSAGKVAISAKEIKEDNIGAQVLGLFTLSTGQDSWNQTN
B2: PRT-3 (protein)
chain: MRNATEAYAKEVPHQITSVWTKGVTPLTPEQFRYNNEDVIHAPYLAHQGWYDITKAFDGKDNLLCGAATAGNMLHWWFDQNKTEIEAYLSKHPEKQKIIFNNQELFDLKAAIDTKDSQTNSQLFNYFRDKAFPNLSARQLGVMPDLVLDMFINGYYLNVFKTQSTDVNRPYQDKDKRGGIFDAVFTRGDQTTLLTARHDLKNKGLNDISTIIKQELTEGRALALSHTYANVSISHVINLWGADFNAEGNLEAIYVTDSDANASIGMKKYFVGINAHGHVAISAKKIEGENIGAQVLGLFTLSSGKDIWQKLS
B3: PRT-537 (protein)
chain: MANQEIRYSSDSEWANKKVWVYGITPPEEGAWFYSTYYLPWKKEYGWYDCNKRNPTADGMMCWAASASNLLHWWIAQNKEYIDLYGDKYKGPDKINFNGEQMFDVKEYIDPLDKPQESDIFQCFIDKSFADLSTKHEAGKGDAGINWFIHGIIPSSPAHGPTPVKLRYPYNPAGYFKDVFPRGDGVVLLGNNGDFKELGKERFNETIKDALANKKGIGLSIGPVNVRSSHVVTIWGAEFDENGDVSYIYMADNNDRWGVGCIRYQIVYEEGGTYTCYKTEIIPSDRPIPINRLVTLELGEEYWKQTNLEHHHHHH
B4: PRT-48 (protein)
chain: MANQEIRYSEVTPYHVTSVWTKGVTPPANFTQGEDVFHAPYKANQGWYDINKTFNGGDDLLCGAATAGNMLHWWFDQNKDYIDRYLEEHPEKQKINFNGEQMFDVKEAIDTKNNQTDSKLFEYFKEKAFPYLSTKHLGVFPDRVIDMFINGYRLSLTNHGPTPVKEGSKDPRGGFFDDVFTRGDQSKLLTSRHDFKEKNLKEISDLIKKELKEGKALGLSHTYANVRINHVINLWGADFDSNGNLKAIYVTDSDSNASVGMKKYRVGVNSAGKVAISAKEIKEDNIGAQVLGLFTLSTGQDSWNQTN
B5: PRT-569 (protein)
chain: MANQEIRYSKATPSHITSVWTKGVTPPEQFIYNEDVLHAPYIANQGWYDITKTFNGKDDLLCGAATAGNMLHWWFDQNKEQIENYLKKHPEKQKINFNGEQMFDVKEAIDTKDSQTNSALFSYFKDKAFPYLSTKHLGVFPDHVIDMFINGYRLSLTNHGPTPVKEQTKDPRGGIFDAVFTRGDQSKLLTSRHDFKEKTLNEISQLIKQELTEGKALGLSHTYANVRINHVINLWGADFNAEGNLEAIYVTDSDSNASIGMKKYYVGVNSAGKVAISAKEIEGDNIGAQVLGLFTLSTGQDIWQQTNLEHHHHHH
B6: PRT-42 (protein)
chain: MANQEIRYSEVTPYHVTSVWTKGVTPPANFTQGEDVFHAPYVANQGWYDITKTFNGKDDLLCGAATAGNMLHWWFDQNKDQIDRYLEEHPEKQKINFNGEQMFDVKEAIDTKNDQLDSKLFEYFKEKAFPYLSTKHLGVFPDLVIDMFINGYRLSLTNHGPTPVKEGSKDPRGGFFDAVFTRGDQSKLLTSRHDFKEKNLKEISDLIKKELTEGKALGLSHTYANVRINHVINLWGADFDSNGNLKAIYVTDSDSNASIGMKKYFVGVNSAGKVAISAKEIKEDNIGAQVLGLFTLSTGQDSWNQTN
B7: PRT-45 (protein)
chain: MANQEIRYSEVTPYHVTSVWTKGVTPPANFTQGEDVFHAPYVANQGWYDITKTFNGGDDLLCGAATAGNMLHWWFDQNKEQIDRYLEEHPEKQKINFNGEQMFDVKEAIDTKNSQTDSKLFEYFKEKAFPYLSTKHLGVFPDLVLDMFINGYRLSLTNHGPTPVKEGSKDPRGGIFDAVFTRGDQSKLLTSRHDFKEKNLEEISDLIKKELTEGKALGLSHTYANVRINHVINLWGADFDSNGNLKAIYVTDSDSNASIGMKKYFVGVNSAGKVAISAKEIKEDNIGAQVLGLFTLSTGQDSWNQTN
B8: PRT-46 (protein)
chain: MANQEIRYSEVTPYHVTSVWTKGVTPPANFTQGEDVFHAPYVANQGWYDITKTFNGKDDLLCGAATAGNMLHWWFDQNKDQIDRYLEEHPEKAKINFNGEQMFDVKEAIDTKNDQLDSKLFEYFKEKAFPYLSTKHLGVFPDLVLDMFINGYRLSLTNHGPTPVKEGSKDPRGGFFDAVFTRGDQSKLLTSRHDFKEKNLKEISDLIKKELTEGKALGLSHTYANVRINHVINLWGADFDSNGNLKAIYVTDSDSNASIGMKRYFVGVNSAGKVAISAKEIKEDNIGAQVLGLFTLSTGQDSWNQTN
B9: PRT-51 (protein)
chain: MANQEIRYSEVTPYHVTSVWTKGVTPPANFTQGEDVFHAPYVANQGWYDINKTFNGKDDLLCGAATAGNMLHWWFDQNKDYIDRYLKKHPEKAKINFNGEQMFDVKEAIDTKNDQLDSKLFEYFKEKAFPYLSTKHLGVFPDLVLDMFINGYRLSLTNHGPTPVKEGSKDPRGGFFDDVFTRGDQSKLLTSRHDFKEKNLEEISDLIKKELTEGKALGLSHTYANVRINHVINLWGADFDENGNLKAIYVTDSDSNASIGMKRYFVGVNSAGKVAISAKEIKEDNIGAQVLGLFTLSTGQDSWNQTN
B10: PRT-44 (protein)
chain: MANQEIRYSEVTPYHVTSVWTKGVTPPANFTQGEDVFHAPYVANQGWYDITKTFNGGDDLLCGAATAGNMLHWWFDQNKDQIDRYLEEHPEKQKINFNGEQMFDVKEAIDTKNSQTDSKLFEYFKEKAFPYLSTKHLGVFPDLVLDMFINGYRLSLTNHGPTPVKEGSKDPRGGFFDDVFTRGDQSKLLTSRHDFKEKNLKEISDLIKKELTEGKALGLSHTYANVRINHVINLWGADFDSNGNLKAIYVTDSDSNASIGMKKYFVGVNSAGKVAISAKEIKEDNIGAQVLGLFTLSTGQDSWNQTN
B11: PRT-43 (protein)
chain: MANQEIRYSEVTPYHVTSVWTKGVTPPANFTQGEDVFHAPYVANQGWYDITKTFNGKDDLLCGAATAGNMLHWWFDQNKDQIDRYLEEHPEKQKINFNGEQMFDVKEAIDTKNDQTDSKLFEYFKEKAFPYLSTKHLGVFPDLVIDMFINGYRLSLTNHGPTPVKEGSKDPRGGIFDAVFTRGDQSKLLTSRHDLKEKNLKEISDLIKKELTEGKALGLSHTYANVRINHVINLWGADFDSNGNLKAIYVTDSDSNASIGMKKYFVGVNSAGKVAISAKEIKEDNIGAQVLGLFTLSTGQDSWNQTN
B12: PRT-47 (protein)
chain: MANQEIRYSEVTPYHVTSVWTKGVTPPANFTQGEDVFHAPYVANQGWYDINKTFNGGDDLLCGAATAGNMLHWWFDQNKDQIDRYLKEHPEKAKINFNGEQMFDVKEAIDTKNDQTNSKLFEYFKEKAFPYLSTKHLGVFPDLVLDMFINGYRLSLTNHGPTPVKEGSKDPRGGFFDAVFTRGDQSKLLTSRHDFKEKNLKEISDLIKKELTEGKALGLSHTYANVRINHVINLWGADFDSNGNLKAIYVTDSDSNASVGMKKYFVGVNSAGKVAISAKEIKEDNIGAQVLGLFTLSTGQDSWNQTN
B13: PRT-49 (protein)
chain: MANQEIRYSEVTPYHVTSVWTKGVTPPANFTQGEDVFHAPYVANQGWYDITKTFNGKDDLLCGAATAGNMLHWWFDQNKDYIDRYLEEHPEKAKINFNGEQMFDVKEAIDTKNDQTDSKLFEYFKEKAFPYLSTKHLGVFPDHVIDMFINGYRLSLTNHGPTPVKEGSKDPRGGFFDDVFGRGDQSKLLTSRHDFKEKNLKEISDLIKKELTEGKALGLSHTYANVRINHVINLWGADFDSNGNLKAIYVTDSDSNASVGMKKYFVGVNSAGKVAISAKEIKEDNIGAQVLGLFTLSTGQDSWNQTN

The series deals with pooled human IgG.
For B1, the Enzyme Activity Endpoint Assay: Fab′2 was 0 ng/µL, the Enzyme Activity Endpoint Assay: Fc was 5 ng/µL, the Enzyme Activity Endpoint Assay: IgG was 135 ng/µL and the Enzyme Activity Endpoint Assay: scIgG was 0 ng/µL.
For B2, the Enzyme Activity Endpoint Assay: Fab′2 was 14 ng/µL, the Enzyme Activity Endpoint Assay: Fc came out at 72 ng/µL, the Enzyme Activity Endpoint Assay: IgG worked out at 11 ng/µL and the Enzyme Activity Endpoint Assay: scIgG was found to be 33 ng/µL.
In the case of B3, the Enzyme Activity Endpoint Assay: Fab′2 turned out to be 0 ng/µL, the Enzyme Activity Endpoint Assay: Fc stood at 0 ng/µL, the Enzyme Activity Endpoint Assay: IgG came to 1000 ng/µL and the Enzyme Activity Endpoint Assay: scIgG was 0 ng/µL.
Consider B4, for which the Enzyme Activity Endpoint Assay: Fab′2 is 0 ng/µL, the Enzyme Activity Endpoint Assay: Fc is 5 ng/µL, the Enzyme Activity Endpoint Assay: IgG is 141 ng/µL and the Enzyme Activity Endpoint Assay: scIgG was found to be 0 ng/µL.
The protein B5 displayed an Enzyme Activity Endpoint Assay: Fab′2 of 723 ng/µL, an Enzyme Activity Endpoint Assay: Fc of 294 ng/µL, an Enzyme Activity Endpoint Assay: IgG of 0 ng/µL and an Enzyme Activity Endpoint Assay: scIgG of 0 ng/µL.
For B6, the Enzyme Activity Endpoint Assay: Fab′2 was determined as 0 ng/µL, the Enzyme Activity Endpoint Assay: Fc was found to be 54 ng/µL, the Enzyme Activity Endpoint Assay: IgG worked out at 26 ng/µL and the Enzyme Activity Endpoint Assay: scIgG turned out to be 53 ng/µL.
For B7, in that order: 3 ng/µL, 76 ng/µL, 8 ng/µL and 67 ng/µL.
For B8, in that order: 20 ng/µL, 101 ng/µL, 15 ng/µL and 39 ng/µL.
For the protein B9, the Enzyme Activity Endpoint Assay: Fab′2 turned out to be 0 ng/µL, the Enzyme Activity Endpoint Assay: Fc is 11 ng/µL, the Enzyme Activity Endpoint Assay: IgG worked out at 118 ng/µL and the Enzyme Activity Endpoint Assay: scIgG turned out to be 0 ng/µL.
B10 gave an Enzyme Activity Endpoint Assay: Fab′2 of 3 ng/µL, an Enzyme Activity Endpoint Assay: Fc of 78 ng/µL, an Enzyme Activity Endpoint Assay: IgG of 14 ng/µL and an Enzyme Activity Endpoint Assay: scIgG of 60 ng/µL.
B11 had an Enzyme Activity Endpoint Assay: Fab′2 of 23 ng/µL, an Enzyme Activity Endpoint Assay: Fc of 89 ng/µL, an Enzyme Activity Endpoint Assay: IgG of 13 ng/µL and an Enzyme Activity Endpoint Assay: scIgG of 32 ng/µL.
The corresponding values for B12 are 0 ng/µL, 5 ng/µL, 132 ng/µL and 0 ng/µL.
B13: the Enzyme Activity Endpoint Assay: Fab′2 is 30 ng/µL, the Enzyme Activity Endpoint Assay: Fc came out at 96 ng/µL, the Enzyme Activity Endpoint Assay: IgG came to 18 ng/µL and the Enzyme Activity Endpoint Assay: scIgG stood at 40 ng/µL.
